This is an account of results in patent US20150175708A1.

For assay [1], the target named is EGFR on the cell surface of human tumor cell lines (human) (UniProt P00533). Nature of the assay: cell-based or functional assay.
For assay [2], the target named is MET on the cell surface of human tumor cell lines (human) (UniProt P08581). Nature of the assay: cell-based or functional assay.
MET on the cell surface of human tumor cell lines (human), sequence (P08581 25-1390): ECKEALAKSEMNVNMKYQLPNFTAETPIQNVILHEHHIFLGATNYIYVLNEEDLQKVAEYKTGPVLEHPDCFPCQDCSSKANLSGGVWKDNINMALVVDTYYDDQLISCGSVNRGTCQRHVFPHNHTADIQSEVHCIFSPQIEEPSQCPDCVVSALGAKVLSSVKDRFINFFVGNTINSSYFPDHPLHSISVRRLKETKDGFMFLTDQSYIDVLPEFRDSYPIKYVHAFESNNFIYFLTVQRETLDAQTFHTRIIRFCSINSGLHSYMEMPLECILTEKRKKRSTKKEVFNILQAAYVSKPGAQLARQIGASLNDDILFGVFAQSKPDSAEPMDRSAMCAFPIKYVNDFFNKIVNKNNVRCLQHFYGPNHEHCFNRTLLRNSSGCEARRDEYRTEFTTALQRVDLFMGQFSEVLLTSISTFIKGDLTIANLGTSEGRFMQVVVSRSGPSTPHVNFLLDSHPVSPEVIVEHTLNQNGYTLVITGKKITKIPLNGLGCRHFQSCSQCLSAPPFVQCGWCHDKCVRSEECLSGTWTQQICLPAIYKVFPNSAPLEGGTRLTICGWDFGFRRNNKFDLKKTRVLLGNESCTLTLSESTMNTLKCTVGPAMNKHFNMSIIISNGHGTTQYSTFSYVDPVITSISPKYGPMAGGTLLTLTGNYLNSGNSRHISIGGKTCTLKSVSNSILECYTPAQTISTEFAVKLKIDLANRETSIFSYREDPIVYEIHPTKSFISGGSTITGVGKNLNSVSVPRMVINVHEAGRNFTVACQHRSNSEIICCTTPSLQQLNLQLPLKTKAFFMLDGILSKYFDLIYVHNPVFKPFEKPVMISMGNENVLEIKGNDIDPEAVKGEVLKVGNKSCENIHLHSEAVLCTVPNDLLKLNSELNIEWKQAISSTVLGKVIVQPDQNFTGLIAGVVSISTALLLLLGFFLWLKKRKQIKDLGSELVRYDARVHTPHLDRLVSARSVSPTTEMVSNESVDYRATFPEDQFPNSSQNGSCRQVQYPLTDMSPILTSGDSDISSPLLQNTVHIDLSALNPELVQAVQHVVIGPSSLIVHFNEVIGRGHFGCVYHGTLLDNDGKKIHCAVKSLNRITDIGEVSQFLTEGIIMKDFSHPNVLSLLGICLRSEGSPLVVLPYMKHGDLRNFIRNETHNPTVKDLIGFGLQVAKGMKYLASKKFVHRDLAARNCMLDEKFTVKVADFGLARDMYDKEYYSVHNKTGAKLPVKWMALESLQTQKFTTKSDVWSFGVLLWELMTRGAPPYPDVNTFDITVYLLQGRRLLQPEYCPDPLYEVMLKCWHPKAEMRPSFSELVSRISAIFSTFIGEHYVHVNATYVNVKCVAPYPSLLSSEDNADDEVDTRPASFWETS

In assay [1], hIgG4 (antibody) yielded a % cell surface EGFR remaining, H441 cells, antibody 50 nM; isotype control, reference for the % of 100% and an AVG of MFI (staining of cell surface EGFR), H441 cells, antibody 50 nM; isotype control, reference for the % of 56.3 MFI. In assay [2], this substance had a % cell surface MET remaining, H441 cells, antibody 50 nM; isotype control, reference for the % of 100% and an AVG of MFI (staining of cell surface MET), H441 cells, antibody 50 nM; isotype control, reference for the % of 77.4 MFI.
